Experimental data published in patent publication US20230382974A1 (HANMI PHARM, published 2023).
Bridges are numbered along the chain shown (N, C = ends). Where no end group is shown, it is not given here. [ ]: non-standard residue; d: D form. Aib = CC(C)(N)C(=O)O

T1: human GIP receptor (human, UniProt P48546 22-466)
T1 sequence (looked up): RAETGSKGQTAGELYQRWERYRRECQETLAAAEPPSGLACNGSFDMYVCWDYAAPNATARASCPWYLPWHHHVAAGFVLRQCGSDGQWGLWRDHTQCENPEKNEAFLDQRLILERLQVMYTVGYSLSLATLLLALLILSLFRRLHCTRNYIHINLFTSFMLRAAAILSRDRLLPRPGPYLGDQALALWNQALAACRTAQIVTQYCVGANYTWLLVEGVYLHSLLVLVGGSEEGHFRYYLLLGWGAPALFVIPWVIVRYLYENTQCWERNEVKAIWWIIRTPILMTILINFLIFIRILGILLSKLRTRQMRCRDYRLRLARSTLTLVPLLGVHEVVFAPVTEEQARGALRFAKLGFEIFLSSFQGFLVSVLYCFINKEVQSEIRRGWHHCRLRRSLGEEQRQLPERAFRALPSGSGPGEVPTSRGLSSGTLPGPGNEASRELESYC

B1: triple agonist peptide of SEQ ID NO: 9 (peptide)
peptide: Y[Aib]EGTFTSDYSEYMEKEAVREFICWLVKGGPSSGAPPPS-NH2
modifications: bridge (positions not given here); not fully specified; also: ring formation between underlined and bold residues, places not given here

target: T1, human GIP receptor; assay: cell-based or functional assay

Which “In vitro activity relative to native peptide (%), vs. GIP (cAMP accumulation EC50, LANCE cAMP kit, CHO cells)” value does the source give for Y[Aib]QGTFTSDYSKYLDEQRAKEFVQWLLDHHPSSGQPPPSC-NH2 (bridge 16-20) [triple agonist peptide of SEQ ID NO: 1] here?
Its value is 51.5%.

With Y[Aib]QGTFTSDYSIYLDEQRAKEFIAWLLAHHPSSGQPPPSC-NH2 (bridge 16-20) [triple agonist peptide of SEQ ID NO: 4] as the binder, how does the “In vitro activity relative to native peptide (%), vs. GIP (cAMP accumulation EC50, LANCE cAMP kit, CHO cells)” value read?
The value was 124%.

How did the “In vitro activity relative to native peptide (%), vs. GIP (cAMP accumulation EC50, LANCE cAMP kit, CHO cells)” value turn out when Y[Aib]QGTFTSDYSKYLDEKRAKEFVQWLLDQHPSSGQPPPSC-NH2 (bridge 16-20) [triple agonist peptide of SEQ ID NO: 5] was run?
The value was 35.5%.

How did the “In vitro activity relative to native peptide (%), vs. GIP (cAMP accumulation EC50, LANCE cAMP kit, CHO cells)” value turn out when Y[Aib]QGTFTSDYSKALDEKAAKDFVQWLLDQHPSSGQPPPSC-NH2 (bridge 16-20) [triple agonist peptide of SEQ ID NO: 6] was run?
The value was 513%.

For Y[Aib]QGTFTSDYSKALDEKAAKDFVQWLKDQHPSSGQPPPSC-NH2 (bridge 16-20) [triple agonist peptide of SEQ ID NO: 7], which “In vitro activity relative to native peptide (%), vs. GIP (cAMP accumulation EC50, LANCE cAMP kit, CHO cells)” value is on record?
Its value is 33.9%.

With Y[Aib]QGTFTSDCSKYLDEKAAKEFVQWLLDHHPSSGQPPPS-NH2 (bridge 16-20) [triple agonist peptide of SEQ ID NO: 8] as the binder, how does the “In vitro activity relative to native peptide (%), vs. GIP (cAMP accumulation EC50, LANCE cAMP kit, CHO cells)” value read?
The value was 6.19%.

Which “In vitro activity relative to native peptide (%), vs. GIP (cAMP accumulation EC50, LANCE cAMP kit, CHO cells)” value does the source give for B1 here?
The value was 11.7%.

Y[Aib]QGTFTSDYSKYLDERASKDFVQWLLDHHPSSGQPPPSC-NH2 (bridge 16-20) [triple agonist peptide of SEQ ID NO: 10] was tested. Which “In vitro activity relative to native peptide (%), vs. GIP (cAMP accumulation EC50, LANCE cAMP kit, CHO cells)” value did it give?
Its value is 23.4%.

Which “In vitro activity relative to native peptide (%), vs. GIP (cAMP accumulation EC50, LANCE cAMP kit, CHO cells)” value does the source give for Y[Aib]QGTFTSDYSIYLDEKAAKEFVQWLLDQHPSSGQPPPSC-NH2 (bridge 16-20) [triple agonist peptide of SEQ ID NO: 11] here?
Its value is 33.7%.

For Y[Aib]EGTFTSDYSIQLDKQAA[Aib]AFVQWLIAGGPSSGAPPPSK-NH2 [triple agonist peptide of SEQ ID NO: 12], which “In vitro activity relative to native peptide (%), vs. GIP (cAMP accumulation EC50, LANCE cAMP kit, CHO cells)” value is on record?
The value was 52.8%.

For Y[Aib]QGTFTSDYSKYLDEQAAKEFVQWLLDHHPSSGQPPPSC-NH2 (bridge 16-20) [triple agonist peptide of SEQ ID NO: 2], which “In vitro activity relative to native peptide (%), vs. GIP (cAMP accumulation EC50, LANCE cAMP kit, CHO cells)” value is on record?
The value was 150%.

With Y[Aib]QGTFTSDYSKYLDEQRAKEFIAWLLDHHPSSGQPPPSC-NH2 (bridge 16-20) [triple agonist peptide of SEQ ID NO: 3] as the binder, how does the “In vitro activity relative to native peptide (%), vs. GIP (cAMP accumulation EC50, LANCE cAMP kit, CHO cells)” value read?
The value was 48.4%.

target: human GLP-1 receptor (human, UniProt P43220 24-463); assay: cell-based or functional assay

For Y[Aib]QGTFTSDYSKYLDEQRAKEFVQWLLDHHPSSGQPPPSC-NH2 (bridge 16-20) [triple agonist peptide of SEQ ID NO: 1], which “In vitro activity relative to native peptide (%), vs. GLP-1 (cAMP accumulation EC50, LANCE cAMP kit, CHO cells)” value is on record?
The value was 16.6%.

How did the “In vitro activity relative to native peptide (%), vs. GLP-1 (cAMP accumulation EC50, LANCE cAMP kit, CHO cells)” value turn out when Y[Aib]QGTFTSDYSIYLDEQRAKEFIAWLLAHHPSSGQPPPSC-NH2 (bridge 16-20) [triple agonist peptide of SEQ ID NO: 4] was run?
Its value is 11.2%.

Which “In vitro activity relative to native peptide (%), vs. GLP-1 (cAMP accumulation EC50, LANCE cAMP kit, CHO cells)” value does the source give for Y[Aib]QGTFTSDYSKYLDEKRAKEFVQWLLDQHPSSGQPPPSC-NH2 (bridge 16-20) [triple agonist peptide of SEQ ID NO: 5] here?
Its value is 49.1%.

How did the “In vitro activity relative to native peptide (%), vs. GLP-1 (cAMP accumulation EC50, LANCE cAMP kit, CHO cells)” value turn out when Y[Aib]QGTFTSDYSKALDEKAAKDFVQWLLDQHPSSGQPPPSC-NH2 (bridge 16-20) [triple agonist peptide of SEQ ID NO: 6] was run?
The value was 89.5%.

For Y[Aib]QGTFTSDYSKALDEKAAKDFVQWLKDQHPSSGQPPPSC-NH2 (bridge 16-20) [triple agonist peptide of SEQ ID NO: 7], which “In vitro activity relative to native peptide (%), vs. GLP-1 (cAMP accumulation EC50, LANCE cAMP kit, CHO cells)” value is on record?
Its value is 97.8%.

Y[Aib]QGTFTSDCSKYLDEKAAKEFVQWLLDHHPSSGQPPPS-NH2 (bridge 16-20) [triple agonist peptide of SEQ ID NO: 8] was tested. Which “In vitro activity relative to native peptide (%), vs. GLP-1 (cAMP accumulation EC50, LANCE cAMP kit, CHO cells)” value did it give?
The value was 42.6%.

B1 was tested. Which “In vitro activity relative to native peptide (%), vs. GLP-1 (cAMP accumulation EC50, LANCE cAMP kit, CHO cells)” value did it give?
The value was 37%.

For Y[Aib]QGTFTSDYSKYLDERASKDFVQWLLDHHPSSGQPPPSC-NH2 (bridge 16-20) [triple agonist peptide of SEQ ID NO: 10], which “In vitro activity relative to native peptide (%), vs. GLP-1 (cAMP accumulation EC50, LANCE cAMP kit, CHO cells)” value is on record?
Its value is 65.3%.

Which “In vitro activity relative to native peptide (%), vs. GLP-1 (cAMP accumulation EC50, LANCE cAMP kit, CHO cells)” value does the source give for Y[Aib]QGTFTSDYSIYLDEKAAKEFVQWLLDQHPSSGQPPPSC-NH2 (bridge 16-20) [triple agonist peptide of SEQ ID NO: 11] here?
Its value is 77.6%.

Which “In vitro activity relative to native peptide (%), vs. GLP-1 (cAMP accumulation EC50, LANCE cAMP kit, CHO cells)” value does the source give for Y[Aib]EGTFTSDYSIQLDKQAA[Aib]AFVQWLIAGGPSSGAPPPSK-NH2 [triple agonist peptide of SEQ ID NO: 12] here?
Its value is 87.2%.

For Y[Aib]QGTFTSDYSKYLDEQAAKEFVQWLLDHHPSSGQPPPSC-NH2 (bridge 16-20) [triple agonist peptide of SEQ ID NO: 2], which “In vitro activity relative to native peptide (%), vs. GLP-1 (cAMP accumulation EC50, LANCE cAMP kit, CHO cells)” value is on record?
The value was 91.4%.

Which “In vitro activity relative to native peptide (%), vs. GLP-1 (cAMP accumulation EC50, LANCE cAMP kit, CHO cells)” value does the source give for Y[Aib]QGTFTSDYSKYLDEQRAKEFIAWLLDHHPSSGQPPPSC-NH2 (bridge 16-20) [triple agonist peptide of SEQ ID NO: 3] here?
The value was 17.4%.

target: human glucagon receptor (human, UniProt P47871 26-477); assay: cell-based or functional assay
Sequence (P47871 26-477): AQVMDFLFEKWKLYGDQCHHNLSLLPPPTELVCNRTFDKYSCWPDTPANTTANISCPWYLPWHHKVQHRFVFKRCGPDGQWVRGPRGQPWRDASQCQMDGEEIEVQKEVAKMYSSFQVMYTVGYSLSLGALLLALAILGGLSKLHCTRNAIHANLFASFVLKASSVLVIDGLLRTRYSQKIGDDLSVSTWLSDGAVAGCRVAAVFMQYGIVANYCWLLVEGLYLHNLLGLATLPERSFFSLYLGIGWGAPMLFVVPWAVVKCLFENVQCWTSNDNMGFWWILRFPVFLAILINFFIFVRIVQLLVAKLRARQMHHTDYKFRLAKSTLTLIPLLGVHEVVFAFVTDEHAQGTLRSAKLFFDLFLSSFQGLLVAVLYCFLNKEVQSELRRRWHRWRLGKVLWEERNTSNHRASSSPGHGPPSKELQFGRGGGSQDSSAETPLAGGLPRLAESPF

Which “In vitro activity relative to native peptide (%), vs. Glucagon (cAMP accumulation EC50, LANCE cAMP kit, CHO cells)” value does the source give for Y[Aib]QGTFTSDYSKYLDEQRAKEFVQWLLDHHPSSGQPPPSC-NH2 (bridge 16-20) [triple agonist peptide of SEQ ID NO: 1] here?
The value was 443%.

For Y[Aib]QGTFTSDYSIYLDEQRAKEFIAWLLAHHPSSGQPPPSC-NH2 (bridge 16-20) [triple agonist peptide of SEQ ID NO: 4], which “In vitro activity relative to native peptide (%), vs. Glucagon (cAMP accumulation EC50, LANCE cAMP kit, CHO cells)” value is on record?
The value was 59.9%.

Y[Aib]QGTFTSDYSKYLDEKRAKEFVQWLLDQHPSSGQPPPSC-NH2 (bridge 16-20) [triple agonist peptide of SEQ ID NO: 5] was tested. Which “In vitro activity relative to native peptide (%), vs. Glucagon (cAMP accumulation EC50, LANCE cAMP kit, CHO cells)” value did it give?
Its value is 826%.

Y[Aib]QGTFTSDYSKALDEKAAKDFVQWLLDQHPSSGQPPPSC-NH2 (bridge 16-20) [triple agonist peptide of SEQ ID NO: 6] was tested. Which “In vitro activity relative to native peptide (%), vs. Glucagon (cAMP accumulation EC50, LANCE cAMP kit, CHO cells)” value did it give?
Its value is 78.1%.

With Y[Aib]QGTFTSDYSKALDEKAAKDFVQWLKDQHPSSGQPPPSC-NH2 (bridge 16-20) [triple agonist peptide of SEQ ID NO: 7] as the binder, how does the “In vitro activity relative to native peptide (%), vs. Glucagon (cAMP accumulation EC50, LANCE cAMP kit, CHO cells)” value read?
Its value is 3.62%.

With Y[Aib]QGTFTSDCSKYLDEKAAKEFVQWLLDHHPSSGQPPPS-NH2 (bridge 16-20) [triple agonist peptide of SEQ ID NO: 8] as the binder, how does the “In vitro activity relative to native peptide (%), vs. Glucagon (cAMP accumulation EC50, LANCE cAMP kit, CHO cells)” value read?
Its value is 5.52%.

Which “In vitro activity relative to native peptide (%), vs. Glucagon (cAMP accumulation EC50, LANCE cAMP kit, CHO cells)” value does the source give for B1 here?
Its value is 26.6%.

How did the “In vitro activity relative to native peptide (%), vs. Glucagon (cAMP accumulation EC50, LANCE cAMP kit, CHO cells)” value turn out when Y[Aib]QGTFTSDYSKYLDERASKDFVQWLLDHHPSSGQPPPSC-NH2 (bridge 16-20) [triple agonist peptide of SEQ ID NO: 10] was run?
Its value is 19%.

Y[Aib]QGTFTSDYSIYLDEKAAKEFVQWLLDQHPSSGQPPPSC-NH2 (bridge 16-20) [triple agonist peptide of SEQ ID NO: 11] was tested. Which “In vitro activity relative to native peptide (%), vs. Glucagon (cAMP accumulation EC50, LANCE cAMP kit, CHO cells)” value did it give?
Its value is 10.2%.

Which “In vitro activity relative to native peptide (%), vs. Glucagon (cAMP accumulation EC50, LANCE cAMP kit, CHO cells)” value does the source give for Y[Aib]EGTFTSDYSIQLDKQAA[Aib]AFVQWLIAGGPSSGAPPPSK-NH2 [triple agonist peptide of SEQ ID NO: 12] here?
The value was 6.6%.

For Y[Aib]QGTFTSDYSKYLDEQAAKEFVQWLLDHHPSSGQPPPSC-NH2 (bridge 16-20) [triple agonist peptide of SEQ ID NO: 2], which “In vitro activity relative to native peptide (%), vs. Glucagon (cAMP accumulation EC50, LANCE cAMP kit, CHO cells)” value is on record?
The value was 146%.

Y[Aib]QGTFTSDYSKYLDEQRAKEFIAWLLDHHPSSGQPPPSC-NH2 (bridge 16-20) [triple agonist peptide of SEQ ID NO: 3] was tested. Which “In vitro activity relative to native peptide (%), vs. Glucagon (cAMP accumulation EC50, LANCE cAMP kit, CHO cells)” value did it give?
Its value is 577%.
